According to patent US20250333486A1, “Anti-HSP90 alpha antibody and uses thereof” (NATIONAL HEALTH RESEARCH INSTITUTES, priority 2021, published 2025):
Entries after “also recorded” stand apart in the source; their conditions may differ.

Test system: ARPE-19 retinal pigmented epithelial cells
Assay: Retinal cell toxicity assay (MTS)
Format: cell-based, human
Details: 72 h, up to 594.3 nM (100 μg/ml)
Description: ARPE-19 cells were seeded onto 96-well plates at a density of 4000 cells per well, and then treated in triplicate with various concentrations of 17-AAG or anti-HSP90α antibody HH01 for 72 h. The 3-(4,5-dimethylthiazol-2-yl)-5-(3-carboxymethoxyphenyl)-2-(4-sulfophenyl)-2H-tetrazolium (MTS; Sigma-Aldrich) assay was employed and OD490 was measured to evaluate cell viability upon each treatment.

B1: HH01: humanized anti-HSP90α IgG1 antibody, mutant of Clone-2-chimera; VH SEQ ID NO: 12, VL SEQ ID NO: 17 (antibody, V domains shown)
VH: EVQLVESGGGLVQPGGSLRLSCAASGFTFKTYAMNWVRQAPGQGLEWVARIRSKSRNYATYYADSVKDRFTISRDDSKNQFYLQMNNLRTEDTAVYYCVVGGSGFDYWGQGTTLTVSS
VL: DVVMTQTPLSLPVSLGDQASISCRSSQSIVHSNGNTYLEWYLQKPGQSPQLLIYKVSNRFSGVPDRFSGSGSGTDFTLTISSVEAEDLGVYYCFQGSHVPWTFGGGTKLEIK
modifications: Heavy chain variable region; Light chain variable region
cytotoxicity in ARPE-19 cells: did not cause any obvious cytotoxicity; also recorded: not cytotoxic
